# Measurements published in patent publication US10654893B2, “Self-assembling peptide compositions” (3-D MATRIX, LTD., priority 2014, dated 2020).
# Tests used:
# Type in all cases: physicochemical
# [1] = Time sweep test of gelation after adding DMEM or saline buffer
# Description: FIG. 25 includes 1.5% IEIK13 (SEQ ID NO:3) data at pH 2.3, 2.6, 2.9 and 3.2. Time sweep tests were performed at 1 rad/sec and at 1 Pa with 20 mm plates and 500 μm gap distance. During time sweep tests, DMEM was added into the chamber surrounding the measuring plates to soak the peptides at time=0.
# Time sweep tests were performed at 1 rad/sec and at 1 Pa with 20 mm plates and 500 μm gap distance. During time sweep tests, the saline buffer was added into the chamber surrounding the measuring plates to soak the peptides at time=0.
# [2] = Rheometer stress sweep test of peptide compositions at selected concentrations (AR500, 40 mm plates); details: 37° C.; for Loss Modulus (G″) / Storage Modulus (G′): at 1 Pa of oscillation stress, 10 rad/s; for Max. Viscosity (max η′): maximum in range of measured stress; for Yield Stress: stress sweep 10 rad/s
# Description: The present Example further describes measurement of various rheological properties of certain peptide compositions at selected concentrations using a rheometer (AR500, TA Instruments) with 40 mm plates. A peptide composition (700 μL) was placed on the rheometer plate and excess composition was gently removed by Kimwipes. Measurements were performed after 2 minutes of relaxation time at 37° C. Storage modulus, loss modulus, and viscosity (η′) were measured at 37° C. with the plates placed at a measuring geometry gap of 300 μm, and stress sweep tests were performed at 0.1 Pa˜1000 Pa of oscillation stress with angular frequency at 10 rad/s.
# Results are shown in FIGS. 2-4 for RADA16 (SEQ ID NO:1), IEIK13 (SEQ ID NO:3), and KLD12 (SEQ ID NO:2).
# [3] = Mixing of RADA16 with DMEM and centrifugation
# Description: When the mixture was centrifuged at 2500 rpm for 5 min, phase separation of cloudy RADA16 (SEQ ID NO:1) precipitated from the mixture. In this case, the peptide assemblies (i.e. initially were formed via hydrophobic interactions) were likely broken down during the mixing process. Attractive charge-charge interactions were dominant over hydrophobic interactions, which induce formation of random intra- and inter-molecular aggregates. The phase separation is illustrated in FIG. 7.
# [4] = Rheological properties (stiffness, storage modulus, viscosity) at selected pH levels
# Description: Rheological properties of certain peptide compositions were observed before and after adjusting their pH levels to 3.4 (RADA16 (SEQ ID NO:1) and KLD12 (SEQ ID NO:2)) or 3.7 (IEIK13 (SEQ ID NO:3)). Rheological properties of peptides were evaluated using a rheometer (AR500, TA Instruments) with 40 mm plates. Specifically, a peptide composition (700 μL) was placed on the rheometer plate and excess composition was gently removed by Kimwipes. Measurements were performed after 2 minutes of relaxation time at 37° C. RADA16 (SEQ ID NO:1), KLD12 (SEQ ID NO:2) and IEIK13 (SEQ ID NO:3) compositions at elevated pH were stiffer than those at 2.5 (RADA16 (SEQ ID NO:1)), 2.0 (KLD12 (SEQ ID NO:2)), and 2.1 (IEIK13 (SEQ ID NO:3)).
# Storage modulus of certain peptide compositions at selected pH levels were evaluated using a rheometer (DHR-1, TA Instruments) with 20 mm plates. […] Determined storage moduli for tested peptide compositions are shown in FIG. 18 for RADA16 (SEQ ID NO:1) and FIG. 19 for IEIK13 (SEQ ID NO:3), respectively.
# Viscosities of 1% IEIK13 (SEQ ID NO:3) compositions at selected pH levels were evaluated using a rheometer (DHR-1, TA Instruments) with 20 mm plates.
# [5] = Rheological properties at selected ionic strengths (DHR-1, 20 mm plates)
# Description: FIGS. 27-29 show rheological properties measured with a rheometer (DHR-1, TA Instruments) with 20 mm plates when ion strengths are slightly lower than the critical ion strengths. Ion strengths of RADA16 (SEQ ID NO:1), KLD12 (SEQ ID NO:2) and IEIK13 (SEQ ID NO:3) were 0.7 M, 0.2 M and 0.02M, respectively for the measurements. Rheological properties of RADA16 (SEQ ID NO:1), KLD12 (SEQ ID NO:2) and IEIK13 (SEQ ID NO:3) compositions were higher after adjusting their ionic strength levels with NaCl to 0.7 M (RADA16 (SEQ ID NO:1)), 0.2 M (KLD12 (SEQ ID NO:2)) or 0.02 M (IEIK13 (SEQ ID NO:3)).
# Rheological properties of peptide compositions at selected ionic strengths were measured using a rheometer (DHR-1, TA Instruments) with 20 mm plates. […] Results are shown in FIG. 30 for RADA16 (SEQ ID NO:1) and in FIG. 31 for IEIK13 (SEQ ID NO:3).
# Viscosities of peptide compositions at selected ionic strength levels were evaluated. […] Viscosities of 1% IEIK13 (SEQ ID NO:3) compositions were evaluated using a rheometer (DHR-1, TA Instruments) with 20 mm plates. The results are shown in FIGS. 32A and 32B for IEIK13 (SEQ ID NO:3).
substance,measurement,setting,value
Arg-Ala-Asp-Ala-Arg-Ala-Asp-Ala-Arg-Ala-Asp-Ala-Arg-Ala-Asp-Ala [RADA16],Gelation on exposure to saline buffer,"[1]; saline buffer, 0.15 M NaCl",no or negligible gelation
same,Storage modulus response (gelation kinetics),"[1]; with pH adjustment, time sweep with DMEM (FIGS. 24 and 25)",immediate storage modulus increase
same,Time without storage modulus increase,"[1]; without pH adjustment (pH 2.2), time sweep with DMEM (FIG. 24)",13 s
same,Loss Modulus (G″),[2]; Conc. 1%,12 Pa
same,Storage Modulus (G′),[2]; Conc. 1%,74 Pa
same,Max. Viscosity (max η′),[2]; Conc. 1%,2.3 Pa · s
same,Yield Stress,[2]; Conc. 1%,15.9 Pa
same,Loss Modulus (G″),[2]; Conc. 1.5%,30 Pa
same,Storage Modulus (G′),[2]; Conc. 1.5%,158 Pa
same,Max. Viscosity (max η′),[2]; Conc. 1.5%,3.4 Pa · s
same,Yield Stress,[2]; Conc. 1.5%,20.0 Pa
same,Loss Modulus (G″),[2]; Conc. 2%,39 Pa
same,Storage Modulus (G′),[2]; Conc. 2%,217 Pa
same,Max. Viscosity (max η′),[2]; Conc. 2%,4.0 Pa · s
same,Yield Stress,[2]; Conc. 2%,31.6 Pa
same,Loss Modulus (G″),[2]; Conc. 2.5%,53 Pa
same,Storage Modulus (G′),[2]; Conc. 2.5%,352 Pa
same,Max. Viscosity (max η′),[2]; Conc. 2.5%,5.6 Pa · s
same,Yield Stress,[2]; Conc. 2.5%,50.1 Pa
same,Appearance after mixing with DMEM,[3]; 0.5 mL of DMEM mixed with 0.5 mL of 2% RADA16,cloudy and runny emulsions
same,Phase behaviour after centrifugation of the DMEM mixture,[3]; centrifuged at 2500 rpm for 5 min,precipitated
same,Storage modulus as a function of pH,"[4]; DHR-1, 20 mm plates, 2.5% RADA16, 1.5% IEIK13 (FIGS. 18, 19)",increased with pH increase up to 3.4
same,Stiffness at elevated pH versus unadjusted pH,"[4]; pH 3.4 (RADA16, KLD12) or 3.7 (IEIK13) versus 2.5 (RADA16), 2.0 (KLD12), 2.1 (IEIK13), stress sweep",stiffer
same,Rheological properties as a function of ionic strength,"[5]; 1% compositions, NaCl, decreased at higher ionic strength",increased with ionic strength adjustment up to 0.7 M
same,Rheological properties after adjusting ionic strength with NaCl,"[5]; NaCl 0.7 M (RADA16), 0.2 M (KLD12), 0.02 M (IEIK13), 1%",higher
same,Rheological properties with NaCl versus KCl and CaCl2,[5]; RADA16 compositions with salts,slightly higher
